{"source": "patent US5928941", "tested_on": "RKLF full length (Homo sapiens)", "experiment": "cell_activity", "conditions": "BAEC cotransfection, CAT repression"}
{"substance": "CAC-tkCAT reporter (single beta-globin CACCC site)", "values": [{"measurement": "activity (% decrease in promoter activity)", "result": 90}]}
